The results in this text go back to the supplement of paper PMC10724198.

± gives the standard deviation of the averaged measurements.

The series deals with Saccharomyces cerevisiae. The experiment in a line: protein stability index of tFT-peptide fusion (C-terminal peptide) (PSI (0-1 scale)); higher = more stable (slower turnover). To be noted: temperature: 30 C. How it is done: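 MPS profiling in S. cerevisiae of the yeast C-terminome library: the last 12 aa of each annotated ORF are fused to the C-terminus of a sfGFP-mCherry timer, after a GGGS linker. Cells are FACS-sorted into 8 mCherry/sfGFP bins and deep-sequenced. PSI runs from 0 (unstable) to 1 (stable); wild type and das1Δ backgrounds, two technical replicates each.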

[1] abbreviates: genetic background: das1 deletion.

The sequence DEFQRLTNGIPY [STT4 C-terminal 12 aa] returned a protein stability index under setting [1] of 0.695 ± 0.024 and a protein stability index (genetic background: wild type) of 0.6923 ± 0.0061.

In the case of DEKLHSHNASPN [YNL198C C-terminal 12 aa], the protein stability index worked out at 0.6788 ± 0.0032 under setting [1] and 0.697 ± 0.014 (genetic background: wild type).

On to “DFIRGVAVFMHI [YMR272W-A C-terminal 12 aa]”, for which the protein stability index is, setting by setting: under setting [1], 0.691 ± 0.02; (genetic background: wild type) 0.66587 ± 0.00052.

For the sequence DHIPLLTEFKIL [NGL1 C-terminal 12 aa], the protein stability index was found to be 0.721 ± 0.036 under setting [1] and 0.188 ± 0.02 (genetic background: wild type).

On to DIISFTSTLHGG [URM1 C-terminal 12 aa], for which the protein stability index is 0.727 ± 0.015 under setting [1] and 0.705 ± 0.059 (genetic background: wild type).

As for DISDKIRRMQSR [MGP12 C-terminal 12 aa], the protein stability index by setting is: under setting [1], 0.692 ± 0.0073; (genetic background: wild type) 0.777 ± 0.16.

DKITAELILNKI [EMC2 C-terminal 12 aa] registered a protein stability index under setting [1] of 0.6872 ± 0.0017 and a protein stability index (genetic background: wild type) of 0.6632 ± 0.0027.

In the case of DKKKKKSKCVIL [RHO5 C-terminal 12 aa], the protein stability index runs as follows: under setting [1], 0.753 ± 0.0091; (genetic background: wild type) 0.74 ± 0.014.

As to DKKLARAGNNAI [CUE3 C-terminal 12 aa], the protein stability index is, setting by setting: under setting [1], 0.695 ± 0.0092; (genetic background: wild type) 0.769 ± 0.0094.

Regarding DKPLYKRMFSTK [HXT6 C-terminal 12 aa], the protein stability index runs as follows: under setting [1], 0.694 ± 0.022; (genetic background: wild type) 0.7134 ± 0.0047.

“DKYPFLLYEVVR [YHR022C-A C-terminal 12 aa]”: the protein stability index reads like this: under setting [1], 0.5289 ± 0.0027; (genetic background: wild type) 0.544 ± 0.027.

Sequence DLLNSVVVQRWA [SHP1 C-terminal 12 aa] registered a protein stability index under setting [1] of 0.697 ± 0.012 and a protein stability index (genetic background: wild type) of 0.702 ± 0.034.

DLMISCLMNQET [MTR3 C-terminal 12 aa]: the protein stability index under setting [1] was determined as 0.712 ± 0.028 and the protein stability index (genetic background: wild type) stood at 0.6732 ± 0.0053.

On to DLTKKPKKITFD [DBP3 C-terminal 12 aa], for which the protein stability index runs as follows: under setting [1], 0.6923 ± 0.0048; (genetic background: wild type) 0.638 ± 0.018.

For the sequence DNDIYNTISEVR [RAD9 C-terminal 12 aa], the protein stability index is 0.697 ± 0.022 under setting [1] and 0.727 ± 0.024 (genetic background: wild type).

Consider DPTTNGSIIKNE [IXR1 C-terminal 12 aa], for which the protein stability index runs as follows: under setting [1], 0.6787 ± 0.0023; (genetic background: wild type) 0.7014 ± 0.0049.

As for DRLKRRNNDYGF [MSO1 C-terminal 12 aa], the protein stability index under setting [1] came out at 0.695 ± 0.014 and the protein stability index (genetic background: wild type) amounted to 0.738 ± 0.054.

On to DSLENKIDSMTK [INH1 C-terminal 12 aa], for which the protein stability index reads like this: under setting [1], 0.715 ± 0.018; (genetic background: wild type) 0.714 ± 0.055.

Regarding DSTMKIWSPGYQ [STE4 C-terminal 12 aa], the protein stability index by setting is: under setting [1], 0.7158 ± 0.00073; (genetic background: wild type) 0.728 ± 0.011.

Turning to DSYKLMHSHIHP [IZH1 C-terminal 12 aa], the protein stability index came out at 0.691 ± 0.01 under setting [1] and 0.6721 ± 0.0056 (genetic background: wild type).

Regarding DTSSTVEKKQKT [CCL1 C-terminal 12 aa], the protein stability index runs as follows: under setting [1], 0.686 ± 0.032; (genetic background: wild type) 0.692 ± 0.038.

Consider DTVVRLIDNIVI [PAN6 C-terminal 12 aa], for which the protein stability index is 0.6896 ± 0.0041 under setting [1] and 0.702 ± 0.07 (genetic background: wild type).

Consider DVERVIRNAGRS [HSL1 C-terminal 12 aa], for which the protein stability index worked out at 0.693 ± 0.0082 under setting [1] and 0.674 ± 0.0079 (genetic background: wild type).

On to EALGKGGRGKRY [LSO1 C-terminal 12 aa], for which the protein stability index runs as follows: under setting [1], 0.671 ± 0.013; (genetic background: wild type) 0.678 ± 0.019.

In the case of EALTKASNVNKL [CIT3 C-terminal 12 aa], the protein stability index amounted to 0.6972 ± 0.0031 under setting [1] and 0.65 ± 0.041 (genetic background: wild type).

Take EAQSARNEKPLK [COS8 C-terminal 12 aa]: the protein stability index came to 0.685 ± 0.021 under setting [1] and 0.691 ± 0.029 (genetic background: wild type).

As for EDRQAFFDSLKE [YGK1 C-terminal 12 aa], the protein stability index runs as follows: under setting [1], 0.724 ± 0.036; (genetic background: wild type) 0.651 ± 0.025.

On to EDSKEYFEAANK [TSA1 C-terminal 12 aa], for which the protein stability index amounted to 0.71 ± 0.021 under setting [1] and 0.704 ± 0.0061 (genetic background: wild type).

For EDTVNDKANFEG [STL1 C-terminal 12 aa], the protein stability index under setting [1] was 0.673 ± 0.015 and the protein stability index (genetic background: wild type) came out at 0.655 ± 0.015.

With EEFLTLLGRRSI [FOL2 C-terminal 12 aa], the protein stability index is, setting by setting: under setting [1], 0.708 ± 0.01; (genetic background: wild type) 0.723 ± 0.012.

Take EEWYTSNHDSLA [PRP18 C-terminal 12 aa]: the protein stability index was determined as 0.723 ± 0.013 under setting [1] and 0.698 ± 0.014 (genetic background: wild type).

On to EFEKAQEINKKA [YRB1 C-terminal 12 aa], for which the protein stability index runs as follows: under setting [1], 0.712 ± 0.017; (genetic background: wild type) 0.694 ± 0.02.

Turning to EGDIEPLKRILK [UBP2 C-terminal 12 aa], the protein stability index is, setting by setting: under setting [1], 0.706 ± 0.012; (genetic background: wild type) 0.675 ± 0.088.

With EGRKVKKVSFAQ [LOC1 C-terminal 12 aa], the protein stability index under setting [1] amounted to 0.7297 ± 0.0035 and the protein stability index (genetic background: wild type) was found to be 0.7111 ± 0.0032.

In the case of EHYSDGDVCIII [DAL3 C-terminal 12 aa], the protein stability index runs as follows: under setting [1], 0.68 ± 0.032; (genetic background: wild type) 0.68 ± 0.016.

Take EIASCSSSIYSE [DSE3 C-terminal 12 aa]: the protein stability index amounted to 0.696 ± 0.022 under setting [1] and 0.711 ± 0.035 (genetic background: wild type).

As to EIIRVGPQESII [MRP49 C-terminal 12 aa], the protein stability index by setting is: under setting [1], 0.723 ± 0.019; (genetic background: wild type) 0.749 ± 0.034.

On to EIRKIMMEEQPR [CHM7 C-terminal 12 aa], for which the protein stability index reads like this: under setting [1], 0.6863 ± 0.0051; (genetic background: wild type) 0.66 ± 0.0089.

Turning to EKLPSKFTFKRE [ARN1 C-terminal 12 aa], the protein stability index is, setting by setting: under setting [1], 0.696 ± 0.012; (genetic background: wild type) 0.6817 ± 0.0011.

For ELERDITISREY [MIP1 C-terminal 12 aa], the protein stability index is, setting by setting: under setting [1], 0.701 ± 0.028; (genetic background: wild type) 0.698 ± 0.068.

Regarding ELIEDPRKMLLW [KGD2 C-terminal 12 aa], the protein stability index was found to be 0.694 ± 0.014 under setting [1] and 0.69 ± 0.033 (genetic background: wild type).

On to ELLRLHNCHLPV [RMA1 C-terminal 12 aa], for which the protein stability index runs as follows: under setting [1], 0.713 ± 0.018; (genetic background: wild type) 0.7 ± 0.0081.

Take ELPGVAFLSEKK [PGK1 C-terminal 12 aa]: the protein stability index under setting [1] came out at 0.728 ± 0.016 and the protein stability index (genetic background: wild type) was 0.67 ± 0.0094.

For the sequence ELTKALDLLNSI [VTA1 C-terminal 12 aa], the protein stability index under setting [1] was found to be 0.691 ± 0.015 and the protein stability index (genetic background: wild type) amounted to 0.694 ± 0.047.

ENISSPLGKKSR [PSY4 C-terminal 12 aa]: the protein stability index runs as follows: under setting [1], 0.691 ± 0.0098; (genetic background: wild type) 0.706 ± 0.0047.

For the sequence ENYYPSSLTLDI [JLP1 C-terminal 12 aa], the protein stability index by setting is: under setting [1], 0.72281 ± 0.00028; (genetic background: wild type) 0.696 ± 0.062.

EPTKKGFLVCRM [YMR320W C-terminal 12 aa]: the protein stability index runs as follows: under setting [1], 0.771 ± 0.037; (genetic background: wild type) 0.702 ± 0.05.

Consider EQIELKNFFVDV [YCR016W C-terminal 12 aa], for which the protein stability index worked out at 0.6881 ± 0.0062 under setting [1] and 0.6997 ± 0.0015 (genetic background: wild type).

Consider EREKVDIHIPQV [BEM3 C-terminal 12 aa], for which the protein stability index is, setting by setting: under setting [1], 0.711 ± 0.02; (genetic background: wild type) 0.701 ± 0.011.

ESIEELLRKTLE [ZNG1 C-terminal 12 aa]: the protein stability index was determined as 0.687 ± 0.02 under setting [1] and 0.735 ± 0.067 (genetic background: wild type).

ESIVDFVERHED [IMO32 C-terminal 12 aa]: the protein stability index by setting is: under setting [1], 0.714 ± 0.017; (genetic background: wild type) 0.691 ± 0.019.

On to ESPIDAEKNFAR [INA1 C-terminal 12 aa], for which the protein stability index worked out at 0.693 ± 0.0098 under setting [1] and 0.6821 ± 0.0024 (genetic background: wild type).

As for ETMGARLKIDGK [YJR149W C-terminal 12 aa], the protein stability index stood at 0.7079 ± 0.0065 under setting [1] and 0.689 ± 0.011 (genetic background: wild type).

For ETPSQTSQEATQ [ERG6 C-terminal 12 aa], the protein stability index runs as follows: under setting [1], 0.731 ± 0.0089; (genetic background: wild type) 0.722 ± 0.015.

For the sequence ETSITNDNESQQ [PPZ1 C-terminal 12 aa], the protein stability index is 0.695 ± 0.0074 under setting [1] and 0.701 ± 0.04 (genetic background: wild type).

Take EVALAPSSNMIF [YKL083W C-terminal 12 aa]: the protein stability index reads like this: under setting [1], 0.716 ± 0.02; (genetic background: wild type) 0.713 ± 0.0034.

Turning to EVDELPEGYDRS [TAH1 C-terminal 12 aa], the protein stability index by setting is: under setting [1], 0.6846 ± 0.0037; (genetic background: wild type) 0.6764 ± 0.002.

EVLAADNTRVPC [YLL067C C-terminal 12 aa]: the protein stability index reads like this: under setting [1], 0.6968 ± 0.0039; (genetic background: wild type) 0.677 ± 0.028.

As to EVLERSVLLRKR [MDJ2 C-terminal 12 aa], the protein stability index runs as follows: under setting [1], 0.699 ± 0.017; (genetic background: wild type) 0.688 ± 0.01.

Turning to EVSQYAAFFQDD [CTM1 C-terminal 12 aa], the protein stability index reads like this: under setting [1], 0.719 ± 0.02; (genetic background: wild type) 0.712 ± 0.028.

On to EVTAKTSLVSPK [ROX1 C-terminal 12 aa], for which the protein stability index is 0.7021 ± 0.004 under setting [1] and 0.676 ± 0.018 (genetic background: wild type).

As to EVVKRYLKMRQD [PUP3 C-terminal 12 aa], the protein stability index is, setting by setting: under setting [1], 0.7 ± 0.011; (genetic background: wild type) 0.5999 ± 0.0049.

For the sequence “FAFSFPITNVLE [YAL016C-B C-terminal 12 aa]”, the protein stability index under setting [1] amounted to 0.703 ± 0.012 and the protein stability index (genetic background: wild type) is 0.683 ± 0.049.

FAQDLMKCTYKI [NUP145 C-terminal 12 aa] registered a protein stability index under setting [1] of 0.708 ± 0.0095 and a protein stability index (genetic background: wild type) of 0.656 ± 0.018.

FATFELAMRLLG [YMC1 C-terminal 12 aa] displayed a protein stability index under setting [1] of 0.674 ± 0.015 and a protein stability index (genetic background: wild type) of 0.194 ± 0.013.

In the case of FCESDSIKMYPT [FYV10 C-terminal 12 aa], the protein stability index by setting is: under setting [1], 0.706 ± 0.0071; (genetic background: wild type) 0.698 ± 0.026.

FCISFPCFGLSI [AIM26 C-terminal 12 aa]: the protein stability index stood at 0.679 ± 0.037 under setting [1] and 0.704 ± 0.003 (genetic background: wild type).

On to FCLQCFKDYCYS [SPO1 C-terminal 12 aa], for which the protein stability index was 0.6444 ± 0.0063 under setting [1] and 0.654 ± 0.032 (genetic background: wild type).
